Test results taken from paper PMC8348300.

Legend:
human alpha-thrombin [1] = target: T1, human alpha-thrombin (Homo sapiens, UniProt P00734;P00734 328-363;364-622); assay: SPR; 10 mM KCl; SPR (OpenSPR, immobilized thrombin): PBS, 0.005% Tween 20, 10 mM KCl, pH 7.4; TBA 1-16 uM (1-8 uM per Results), annealed 95 C 5 min then cooled to room temperat
human alpha-thrombin [2] = target: T1, human alpha-thrombin; assay: SPR; 10 mM KCl; text of 3.2 gives 97.5 nM; SPR (OpenSPR, immobilized thrombin): PBS, 0.005% Tween 20, 10 mM KCl, pH 7.4; TBA 1-16 uM (1-8 uM per Results), annealed 95 C 5 min then cooled to room temperat
human alpha-thrombin [3] = target: T1, human alpha-thrombin; assay: SPR; 10 mM KCl; text of 3.2 gives 99.8 nM; SPR (OpenSPR, immobilized thrombin): PBS, 0.005% Tween 20, 10 mM KCl, pH 7.4; TBA 1-16 uM (1-8 uM per Results), annealed 95 C 5 min then cooled to room temperat
human alpha-thrombin [4] = target: T1, human alpha-thrombin; assay: SPR; 10 mM KCl; text of 3.2 gives 99 nM; SPR (OpenSPR, immobilized thrombin): PBS, 0.005% Tween 20, 10 mM KCl, pH 7.4; TBA 1-16 uM (1-8 uM per Results), annealed 95 C 5 min then cooled to room temperat

Binder | Kd (human alpha-thrombin [1]) | also measured
GGTTGGTGTGGTTGG (structured_DNA, 5' Long Trebler dendrimer (three arms with terminal hydroxyls)) [5LTG] | 99.6 nM | 
GGTTGGTGTGGTTGG (structured_DNA, T13: C5 NHS-carboxy-dT) [13NHT] |  | Kd (human alpha-thrombin [2]): 99.7 nM
GGTTGGTGTGGTTGG (structured_DNA) [TBA (native)] | 99.8 nM | 
GGTTGGTGTGGTTGG (structured_DNA, T4 and T13: C5 NHS-carboxy-dT) [413NHT] |  | Kd (human alpha-thrombin [3]): 102 nM
GGTTGGTGTGGTTGG (structured_DNA, T4: C5 NHS-carboxy-dT) [4NHT] |  | Kd (human alpha-thrombin [4]): 102 nM
GGTTGGTGTGGTTGG (structured_DNA, 5' Trebler dendrimer (three arms with terminal hydroxyls)) [5TG] | 102 nM | 
